“And” between values parts separate entries of the source, which are not always exact repeats. Equal entries are not always repeated.
Columns and labels:
[1] = molecular target: Gla swap FIX/Q286R/M298Q-FVIIa (human)
[2] = molecular target: T128N/P129A/A175S/S222A-FVIIa (human)
[3] = molecular target: A122N/G124S/A175S/Q286R/M298Q/H373F-FVIIa (human)
[4] = molecular target: T239V/Q286R/M298Q/Q366N-FVIIa (human)
[5] = molecular target: GlaSwapFIX/S222A/T239I/Q286R-FVIIa (human)
[6] = molecular target: T239V/M298Q/H373F-FVIIa (human)
[7] = molecular target: T128N/P129A/A175S/Q286R/M298Q-FVIIa (human)
[8] = molecular target: {Gla swap FIX/K43I}/Q286R/M298Q/Q366N-FVIIa (human)
[9] = molecular target: T239I/Q286R/M298Q/H373F-FVIIa (human)
[10] = molecular target: Gla swapFIX/Q366V-FVIIa (human)
[11] = molecular target: T128N/P129A/T239I/Q286R/M298Q-FVIIa (human)
[12] = molecular target: {Gla swap FIX/K43I}/Q286R/M298Q-FVIIa (human)
[13] = molecular target: H257A/Q286R-FVIIa (human)
[14] = molecular target: T128N/P129A/V158D/E296V/M298Q-FVIIa (human)
[15] = molecular target: Gla swap FIX/T128N/P129A/Q286R/M298Q-FVIIa (human)
[16] = molecular target: A122N/G124S-FVIIa (human)
[17] = molecular target: T128N/P129A/S222A/H257A/Q286R/M298Q-FVIIa (human)
[18] = molecular target: {Gla swap FIX/M19K/E40L/K43I/Q44S}/Q286R/M298Q-FVIIa (human)
[19] = molecular target: T239V/Q286R/H373F-FVIIa (human)
[20] = molecular target: Q286R/M298Q-FVIIa (human)
[21] = molecular target: Gla swap FIX/S52A/S60A/Q286R/M298Q-FVIIa (human)
[22] = molecular target: K109N/A175S-FVIIa (human)
[23] = molecular target: Gla swap FIX/S222A/Q286R/M298Q/H373F-FVIIa (human)
[24] = molecular target: T239I/Q286R/M298Q-FVIIa (human)
[25] = molecular target: {Gla swap FIX/K43I}/T128N/P129A/Q286R/M298Q/Q366N-FVIIa (human)
[26] = molecular target: Gla swap FIX/S222A/T239V/Q286R-FVIIa (human)
[27] = molecular target: S222A/H257A/Q286R/M298Q-FVIIa (human)
[28] = molecular target: T128N/P129A/Q286R/M298Q-FVIIa (human)
[29] = molecular target: Gla swap FIX/S222A/Q286R/H373F-FVIIa (human)
[30] = molecular target: S52A/S60A/V158D/E296V/M298Q-FVIIa (human)
[31] = molecular target: S52A/S60A/Q286R-FVIIa (human)
[32] = molecular target: T239V/Q286R-FVIIa (human)

antithrombin III, sequence (P01008 33-464): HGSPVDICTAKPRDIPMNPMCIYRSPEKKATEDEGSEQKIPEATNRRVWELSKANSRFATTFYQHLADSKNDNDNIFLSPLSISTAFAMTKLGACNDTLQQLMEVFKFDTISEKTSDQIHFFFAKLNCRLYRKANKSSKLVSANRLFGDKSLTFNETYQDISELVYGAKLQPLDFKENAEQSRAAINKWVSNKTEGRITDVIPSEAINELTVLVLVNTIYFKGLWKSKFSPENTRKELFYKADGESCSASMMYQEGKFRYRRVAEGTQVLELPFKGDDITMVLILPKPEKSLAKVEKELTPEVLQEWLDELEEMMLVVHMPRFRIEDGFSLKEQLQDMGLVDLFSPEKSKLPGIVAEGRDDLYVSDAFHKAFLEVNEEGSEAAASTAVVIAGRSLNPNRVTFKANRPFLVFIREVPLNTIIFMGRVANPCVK

antithrombin III was tested, and the K0.5 [1] was 282 nM and 238 nM, the K0.5 [2] was 1910 nM and the K0.5 [3] was 1000 nM. For the same substance, the K0.5 [4] was 252 nM, the K0.5 [5] was 3.31 µM and the K0.5 [6] was 46.6 nM. For the same substance, the K0.5 [7] was 2310 nM, the K0.5 [8] was 404 nM and the K0.5 [9] was 370 nM. It also gave a K0.5 [10] of 108 nM, a K0.5 [11] of 917 nM and a K0.5 (H257S-FVIIa (human)) of 723 nM. The K0.5 [12] was 244 nM and 219 nM, the K0.5 [13] was 2800 nM and the K0.5 [14] was 81.6 nM. For the same substance, the K0.5 [15] was 508 nM and 325 nM, the K0.5 [16] was 372 nM and the K0.5 [17] was 653 nM and 328 nM. For the same substance, the K0.5 [18] was 339 nM, the K0.5 [19] was 631 nM and the K0.5 [20] was 299 nM and 287 nM and 395 nM. It also gave a K0.5 [21] of 254 nM, a K0.5 [22] of 2030 nM and a K0.5 [23] of 164 nM. For the same substance, the K0.5 [24] was 1610 nM, the K0.5 (S52A/S60A-FVIIa (human)) was 361 nM and the K0.5 [25] was 319 nM. It also gave a K0.5 [26] of 2440 nM, a K0.5 [27] of 314 nM and a K0.5 [28] of 284 nM. The K0.5 (Q286R-FVIIa (human)) was 1090 nM, the K0.5 [29] was 587 nM and the K0.5 [30] was 78.8 nM. The K0.5 [31] was 1320 nM and the K0.5 [32] was 1790 nM.

Source: US20090291890A1 (published 2009)
